Test results taken from article PMC8852293 (Nature microbiology, 2020).

Molecular target: the molecule itself
Test: ITC

B1: HDP1 DNA-binding domain (HDP1 aa2991-3078) (domain or fragment, P. falciparum, UniProt A0A2I0C2C6 2991-3078, looked up)
chain: SEVQVSNINTPSSYNISARRRRRIGNNGPPSAEELNRLLNIQHLTIPEIATIYGVHRTTIARWCNIRNITSNSMNNSPGKRRKNEDNK
binding result: binds
